B1: HPPDm-6-02: nucleotide sequence encoding Avena sativa HPPD with A106G+K351N+F372A+F383W; vector DBN11787 (nucleic acid)
DNA: ATGCCACCTACTCCAGCTACAGCTACTGGTGCTGCTGCTGCTGCCGTTACTCCTGAGCACGCTGCCAGGTCATTCCCCAGGGTGGTTCGCGTGAACCCCAGATCTGATAGGTTCCCAGTTCTGAGCTTCCACCATGTTGAGCTGTGGTGCGCTGATGCTGCTTCTGCTGCTGGCAGGTTCTCTTTCGCTCTTGGTGCTCCACTCGCTGCTAGATCTGATCTGTCTACAGGAAATAGCGCTCATGCCTCACTCCTGCTTCGCTCAGGTGCTTTGGCCTTCCTCTTCACCGCTCCATATGCTCCCCCACCTCAGGAGGGTGCTACTGCTGCTGCTACAGCCTCCATTCCAAGCTTCTCAGCTGATGCCGCTAGAACCTTCGCTGCTGCTCATGGACTTGCCGTGAGGTCTGTTGGTGTTCGCGTGGCTGATGCTGCTGAGGCTTTCAGAGTTTCCGTTGCCGGCGGAGCTAGGCCAGCTTTCGCTCCTGCTGATTTGGGACATGGTTTCGGCCTGGCTGAGGTTGAGCTTTACGGTGACGTGGTTCTCCGCTTCGTGTCTTACCCAGATGAGACTGACCTGCCTTTCCTTCCCGGCTTCGAGAGAGTTTCCTCTCCTGGTGCCGTGGATTACGGCCTGACAAGGTTCGACCACGTGGTTGGAAACGTTCCCGAGATGGCTCCAGTGATCGATTACATGAAGGGCTTCCTTGGATTCCATGAGTTCGCCGAGTTCACTGCTGAGGACGTGGGAACCACTGAGTCCGGTTTGAACTCTGTGGTTCTCGCCAACAATTCTGAGGCTGTTTTGCTCCCTCTGAATGAGCCTGTGCATGGAACCAAGAGGAGAAGCCAGATTCAAACTTACCTGGAGTACCACGGTGGCCCTGGAGTTCAGCATATCGCCCTTGCTTCTAATGATGTGTTGCGCACACTCAGAGAGATGCGCGCCAGAACCCCCATGGGAGGTTTCGAGTTCATGGCCCCACCACAGGCTAAGTACTACGAGGGCGTTAGAAGGATTGCTGGAGACGTGTTGAGCGAGGAGCAGATCAATGAGTGCCAAGAGCTGGGTGTTCTTGTGGATAGGGATGACCAGGGCGTTCTGCTTCAAATTGCCACTAAGCCAGTGGGCGACCGCCCTACATTCTGGCTTGAGATGATTCAAAGAATCGGCTGCATGGAGAAGGATGAGGTTGGACAGGAGTACCAAAAGGGCGGATGCGGTGGCTTCGGAAAGGGTAACTTCAGCGAGTTGTTCAAGTCAATCGAGGACTACGAGAAGAGCCTCGAGGTGAAGCAGTCAGTGGTTGCCCAAAAGTCCTGA
modifications: HPPDm-6-02 Nucleotide Sequence
notes: vector DBN11787
B2: HPPDm-7-02: nucleotide sequence encoding AsHPPDm-A107-K351N-F372A-F383W with mutated C-terminal; vector DBN11788 (nucleic acid)
DNA: ATGCCACCTACTCCAGCTACAGCTACTGGTGCTGCTGCTGCTGCCGTTACTCCTGAGCACGCTGCCAGGTCATTCCCCAGGGTGGTTCGCGTGAACCCCAGATCTGATAGGTTCCCAGTTCTGAGCTTCCACCATGTTGAGCTGTGGTGCGCTGATGCTGCTTCTGCTGCTGGCAGGTTCTCTTTCGCTCTTGGTGCTCCACTCGCTGCTAGATCTGATCTGTCTACAGGAAATAGCGCTCATGCCTCACTCCTGCTTCGCTCAGGTGCTTTGGCCTTCCTCTTCACCGCTCCATATGCTCCCCCACCTCAGGAGGCTACTGCTGCTGCTACAGCCTCCATTCCAAGCTTCTCAGCTGATGCCGCTAGAACCTTCGCTGCTGCTCATGGACTTGCCGTGAGGTCTGTTGGTGTTCGCGTGGCTGATGCTGCTGAGGCTTTCAGAGTTTCCGTTGCCGGCGGAGCTAGGCCAGCTTTCGCTCCTGCTGATTTGGGACATGGTTTCGGCCTGGCTGAGGTTGAGCTTTACGGTGACGTGGTTCTCCGCTTCGTGTCTTACCCAGATGAGACTGACCTGCCTTTCCTTCCCGGCTTCGAGAGAGTTTCCTCTCCTGGTGCCGTGGATTACGGCCTGACAAGGTTCGACCACGTGGTTGGAAACGTTCCCGAGATGGCTCCAGTGATCGATTACATGAAGGGCTTCCTTGGATTCCATGAGTTCGCCGAGTTCACTGCTGAGGACGTGGGAACCACTGAGTCCGGTTTGAACTCTGTGGTTCTCGCCAACAATTCTGAGGCTGTTTTGCTCCCTCTGAATGAGCCTGTGCATGGAACCAAGAGGAGAAGCCAGATTCAAACTTACCTGGAGTACCACGGTGGCCCTGGAGTTCAGCATATCGCCCTTGCTTCTAATGATGTGTTGCGCACACTCAGAGAGATGCGCGCCAGAACCCCCATGGGAGGTTTCGAGTTCATGGCCCCACCACAGGCTAAGTACTACGAGGGCGTTAGAAGGATTGCTGGAGACGTGTTGAGCGAGGAGCAGATCAATGAGTGCCAAGAGCTGGGTGTTCTTGTGGATAGGGATGACCAGGGCGTTCTGCTTCAAATTGCCACTAAGCCAGTGGGCGACCGCCCTACATTCTGGCTTGAGATGATTCAAAGAATCGGCTGCATGGAGAAGGATGAGGTTGGACAGGAGTACCAAAAGGGCGGATGCGGTGGCTTCGGAAAGGGTAACTTCAGCGAGTTGTTCAAGTCAATCGAGGAGTATGAGAAGACCTTGGAGGCCAAGCAGCTCGTGGGTTGA
modifications: mutated C-terminus; HPPDm-7-02 Nucleotide Sequence
notes: vector DBN11788

What was measured:
Format in all cases: in vivo
[1] = tested on: Arabidopsis thaliana T1 plants; assay: Mesotrione tolerance of transgenic Arabidopsis thaliana T1 plants (spray, bleached leaf area grade, damage score); parameters: Scores: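 damage score 0-100 computed as Σ(N×S)/(T×M)×100 over grades 0-3 with higher meaning more damage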; details: Table 12; for Classification and statistics of the grade of pesticide damage Grade 0: number of plants at grade 0; for Classification and statistics of the grade of pesticide damage Grade 1: number of plants at grade 1; for Classification and statistics of the grade of pesticide damage Grade 2: number of plants at grade 2; for Classification and statistics of the grade of pesticide damage Grade 3: number of plants at grade 3; for Scores: pesticide damage score
How it was run: (§1)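 T1 transformants selected by glufosinate; 18-day-old plants, with empty-vector and wild-type controls, sprayed with topramezone (25–200 g ai/ha), isoxaflutole (35–280 g ai/ha) or mesotrione (52.5–420 g ai/ha), water as 0×. Bleached leaf area fraction scored at 7 DAT as grades 0–3.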

[2] = tested on: Arabidopsis thaliana T1 plants; assay: Topramezone tolerance of transgenic Arabidopsis thaliana T1 plants (spray, bleached leaf area grade, damage score); details: Table 10; for Classification and statistics of the grade of pesticide damage Grade 0: number of plants at grade 0; for Classification and statistics of the grade of pesticide damage Grade 1: number of plants at grade 1; for Classification and statistics of the grade of pesticide damage Grade 2: number of plants at grade 2; for Classification and statistics of the grade of pesticide damage Grade 3: number of plants at grade 3; for Scores: pesticide damage score
How it was run: as §1

[3] = tested on: Arabidopsis thaliana T1 plants; assay: Isoxaflutole tolerance of transgenic Arabidopsis thaliana T1 plants (spray, bleached leaf area grade, damage score); details: Table 11; for Classification and statistics of the grade of pesticide damage Grade 0: number of plants at grade 0; for Classification and statistics of the grade of pesticide damage Grade 1: number of plants at grade 1; for Classification and statistics of the grade of pesticide damage Grade 2: number of plants at grade 2; for Classification and statistics of the grade of pesticide damage Grade 3: number of plants at grade 3; for Scores: pesticide damage score;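 as to Scores: Weighted damage index from 0 to 100 where higher means more damage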
How it was run: as §1

| Molecule | Resistance evaluation ([1]; mesotrione 210 g ai/ha (2×)) | Classification and statistics of the grade of pesticide damage Grade 0 ([1]; mesotrione 210 g ai/ha (2×)) | Classification and statistics of the grade of pesticide damage Grade 1 ([1]; mesotrione 210 g ai/ha (2×)) | Classification and statistics of the grade of pesticide damage Grade 2 ([1]; mesotrione 210 g ai/ha (2×)) | Classification and statistics of the grade of pesticide damage Grade 3 ([1]; mesotrione 210 g ai/ha (2×)) | Scores ([1]; mesotrione 210 g ai/ha (2×)) | Resistance evaluation ([1]; mesotrione 420 g ai/ha (4×)) | Classification and statistics of the grade of pesticide damage Grade 0 ([1]; mesotrione 420 g ai/ha (4×)) | Classification and statistics of the grade of pesticide damage Grade 1 ([1]; mesotrione 420 g ai/ha (4×)) | Classification and statistics of the grade of pesticide damage Grade 2 ([1]; mesotrione 420 g ai/ha (4×)) | Classification and statistics of the grade of pesticide damage Grade 3 ([1]; mesotrione 420 g ai/ha (4×)) | Scores ([1]; mesotrione 420 g ai/ha (4×)) | Resistance evaluation ([2]; topramezone 100 g ai/ha (4×)) | Classification and statistics of the grade of pesticide damage Grade 0 ([2]; topramezone 100 g ai/ha (4×)) | Classification and statistics of the grade of pesticide damage Grade 1 ([2]; topramezone 100 g ai/ha (4×)) | Classification and statistics of the grade of pesticide damage Grade 2 ([2]; topramezone 100 g ai/ha (4×)) | Classification and statistics of the grade of pesticide damage Grade 3 ([2]; topramezone 100 g ai/ha (4×)) | Scores ([2]; topramezone 100 g ai/ha (4×)) | Resistance evaluation ([2]; topramezone 200 g ai/ha (8×)) | Classification and statistics of the grade of pesticide damage Grade 0 ([2]; topramezone 200 g ai/ha (8×)) | other results |
| --- | --- | --- | --- | --- | --- | --- | --- | --- | --- | --- | --- | --- | --- | --- | --- | --- | --- | --- | --- | --- | --- |
| B1 | Highly resistant | 16 | 0 | 0 | 0 | 0 | Highly resistant | 16 | 0 | 0 | 0 | 0 | Highly resistant | 16 | 0 | 0 | 0 | 0 | Highly resistant | 16 | Classification and statistics of the grade of pesticide damage Grade 1 ([2]; topramezone 200 g ai/ha (8×)): 0; Classification and statistics of the grade of pesticide damage Grade 2 ([2]; topramezone 200 g ai/ha (8×)): 0; Classification and statistics of the grade of pesticide damage Grade 3 ([2]; topramezone 200 g ai/ha (8×)): 0; Scores ([2]; topramezone 200 g ai/ha (8×)): 0; Resistance evaluation ([3]; isoxaflutole 140 g ai/ha (2×)): Highly resistant; Classification and statistics of the grade of pesticide damage Grade 0 ([3]; isoxaflutole 140 g ai/ha (2×)): 16; Classification and statistics of the grade of pesticide damage Grade 1 ([3]; isoxaflutole 140 g ai/ha (2×)): 0; Classification and statistics of the grade of pesticide damage Grade 2 ([3]; isoxaflutole 140 g ai/ha (2×)): 0; Classification and statistics of the grade of pesticide damage Grade 3 ([3]; isoxaflutole 140 g ai/ha (2×)): 0; Scores ([3]; isoxaflutole 140 g ai/ha (2×)): 0; Resistance evaluation ([3]; isoxaflutole 280 g ai/ha (4×)): Highly resistant; Classification and statistics of the grade of pesticide damage Grade 0 ([3]; isoxaflutole 280 g ai/ha (4×)): 13; Classification and statistics of the grade of pesticide damage Grade 1 ([3]; isoxaflutole 280 g ai/ha (4×)): 3; Classification and statistics of the grade of pesticide damage Grade 2 ([3]; isoxaflutole 280 g ai/ha (4×)): 0; Classification and statistics of the grade of pesticide damage Grade 3 ([3]; isoxaflutole 280 g ai/ha (4×)): 0; Scores ([3]; isoxaflutole 280 g ai/ha (4×)): 6 |
| B2 | Highly resistant | 16 | 0 | 0 | 0 | 0 | Highly resistant | 15 | 1 | 0 | 0 | 2 | Highly resistant | 16 | 0 | 0 | 0 | 0 | Highly resistant | 16 | Classification and statistics of the grade of pesticide damage Grade 1 ([2]; topramezone 200 g ai/ha (8×)): 0; Classification and statistics of the grade of pesticide damage Grade 2 ([2]; topramezone 200 g ai/ha (8×)): 0; Classification and statistics of the grade of pesticide damage Grade 3 ([2]; topramezone 200 g ai/ha (8×)): 0; Scores ([2]; topramezone 200 g ai/ha (8×)): 0; Resistance evaluation ([3]; isoxaflutole 140 g ai/ha (2×)): Highly resistant; Classification and statistics of the grade of pesticide damage Grade 0 ([3]; isoxaflutole 140 g ai/ha (2×)): 16; Classification and statistics of the grade of pesticide damage Grade 1 ([3]; isoxaflutole 140 g ai/ha (2×)): 0; Classification and statistics of the grade of pesticide damage Grade 2 ([3]; isoxaflutole 140 g ai/ha (2×)): 0; Classification and statistics of the grade of pesticide damage Grade 3 ([3]; isoxaflutole 140 g ai/ha (2×)): 0; Scores ([3]; isoxaflutole 140 g ai/ha (2×)): 0; Resistance evaluation ([3]; isoxaflutole 280 g ai/ha (4×)): Highly resistant; Classification and statistics of the grade of pesticide damage Grade 0 ([3]; isoxaflutole 280 g ai/ha (4×)): 16; Classification and statistics of the grade of pesticide damage Grade 1 ([3]; isoxaflutole 280 g ai/ha (4×)): 0; Classification and statistics of the grade of pesticide damage Grade 2 ([3]; isoxaflutole 280 g ai/ha (4×)): 0; Classification and statistics of the grade of pesticide damage Grade 3 ([3]; isoxaflutole 280 g ai/ha (4×)): 0; Scores ([3]; isoxaflutole 280 g ai/ha (4×)): 0 |
